Data taken from patent US20200079848A1 (Five Prime, published 2020).
“And” between values parts separate entries of the source, which are not always exact repeats. Equal entries are not always repeated.

Assays:
human LILRA4 = biological target: T1, human LILRA4 (human, UniProt P59901 24-499); experiment: flow cytometry, 293T transfectants, antibody 20 µg/ml; stacked histograms, control: parental cells
T1 construct: whole, on cells; also called hLILRA4
Description: (§1) Individual ILT family members were overexpressed in 293T cells. Each transfectant was stained with 20 μg/ml of anti-ILT4 antibodies followed by 1 μg/ml of anti-human IgG secondary mAb. Binding of the antibodies to each transfectant was measured by flow cytometry.

human ILT3 = biological target: T2, human ILT3 (human, UniProt Q8NHJ6 22-448); experiment: as above
T2 construct: whole, on cells; also called hILT3
Description: as §1

human ILT2 = biological target: T3, human ILT2 (human, UniProt Q8NHL6 24-650); experiment: as above
T3 construct: whole, on cells; also called hILT2
T3 sequence (Q8NHL6 24-650): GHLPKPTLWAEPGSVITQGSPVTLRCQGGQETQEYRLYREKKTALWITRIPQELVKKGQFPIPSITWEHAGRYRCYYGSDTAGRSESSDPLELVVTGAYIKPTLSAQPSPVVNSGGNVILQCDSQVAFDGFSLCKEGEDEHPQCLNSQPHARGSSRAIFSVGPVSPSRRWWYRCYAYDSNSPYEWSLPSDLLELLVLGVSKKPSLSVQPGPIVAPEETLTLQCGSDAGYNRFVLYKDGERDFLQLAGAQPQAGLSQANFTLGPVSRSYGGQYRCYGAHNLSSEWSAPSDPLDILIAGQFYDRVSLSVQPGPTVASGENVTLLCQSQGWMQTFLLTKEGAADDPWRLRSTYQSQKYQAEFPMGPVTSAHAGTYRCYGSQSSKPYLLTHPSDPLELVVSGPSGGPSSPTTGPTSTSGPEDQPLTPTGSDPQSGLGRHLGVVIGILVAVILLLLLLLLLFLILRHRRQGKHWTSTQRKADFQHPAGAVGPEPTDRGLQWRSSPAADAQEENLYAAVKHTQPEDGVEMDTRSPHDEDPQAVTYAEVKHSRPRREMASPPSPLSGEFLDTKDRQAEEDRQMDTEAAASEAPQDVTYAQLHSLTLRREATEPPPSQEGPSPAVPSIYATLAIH
Description: as §1

human LILRA5 = biological target: T4, human LILRA5 (human, UniProt A6NI73 42-299); experiment: as above
T4 construct: whole, on cells; also called hLILRA5
Description: as §1

human LIR8 = biological target: T5, human LIR8 (human, UniProt O75023 24-590); experiment: as above
T5 construct: whole, on cells; also called hLIR8
T5 sequence (O75023 24-590): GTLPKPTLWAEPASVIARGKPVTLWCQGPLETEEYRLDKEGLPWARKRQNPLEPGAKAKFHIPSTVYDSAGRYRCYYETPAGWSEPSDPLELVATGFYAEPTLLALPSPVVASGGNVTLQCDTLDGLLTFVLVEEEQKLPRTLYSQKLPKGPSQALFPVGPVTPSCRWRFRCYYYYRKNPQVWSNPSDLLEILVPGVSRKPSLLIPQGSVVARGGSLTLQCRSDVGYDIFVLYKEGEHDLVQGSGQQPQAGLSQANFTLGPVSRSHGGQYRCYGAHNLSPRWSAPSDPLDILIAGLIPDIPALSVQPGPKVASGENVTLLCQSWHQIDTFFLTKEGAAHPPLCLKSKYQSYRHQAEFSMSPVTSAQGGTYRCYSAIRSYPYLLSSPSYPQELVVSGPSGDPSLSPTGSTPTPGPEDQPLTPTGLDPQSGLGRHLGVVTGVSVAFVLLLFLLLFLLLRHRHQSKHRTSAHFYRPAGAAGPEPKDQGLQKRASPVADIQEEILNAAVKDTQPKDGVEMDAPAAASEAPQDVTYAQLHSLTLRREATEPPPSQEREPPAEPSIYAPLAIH
Description: as §1

human LILRA6 = biological target: T6, human LILRA6 (human, UniProt Q6PI73 24-481); experiment: as above
T6 construct: whole, on cells; also called hLILRA6
T6 sequence (Q6PI73 24-481): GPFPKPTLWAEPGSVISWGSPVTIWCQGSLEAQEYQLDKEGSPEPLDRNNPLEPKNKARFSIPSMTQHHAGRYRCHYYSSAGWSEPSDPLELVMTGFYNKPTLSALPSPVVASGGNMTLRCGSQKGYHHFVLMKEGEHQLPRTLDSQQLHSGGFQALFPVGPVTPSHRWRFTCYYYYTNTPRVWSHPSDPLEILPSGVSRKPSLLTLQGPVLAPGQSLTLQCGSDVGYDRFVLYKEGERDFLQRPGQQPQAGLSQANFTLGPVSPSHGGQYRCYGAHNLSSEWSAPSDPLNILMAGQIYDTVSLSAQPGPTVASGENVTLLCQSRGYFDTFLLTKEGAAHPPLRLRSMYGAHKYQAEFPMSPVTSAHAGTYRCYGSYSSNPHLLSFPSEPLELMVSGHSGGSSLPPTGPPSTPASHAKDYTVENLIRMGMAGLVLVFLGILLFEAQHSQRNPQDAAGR
Description: as §1

human LILRA1 = biological target: T7, human LILRA1 (human, UniProt O75019 17-489); experiment: as above
T7 construct: whole, on cells; also called hLILRA1; LIRA1
T7 sequence (O75019 17-489): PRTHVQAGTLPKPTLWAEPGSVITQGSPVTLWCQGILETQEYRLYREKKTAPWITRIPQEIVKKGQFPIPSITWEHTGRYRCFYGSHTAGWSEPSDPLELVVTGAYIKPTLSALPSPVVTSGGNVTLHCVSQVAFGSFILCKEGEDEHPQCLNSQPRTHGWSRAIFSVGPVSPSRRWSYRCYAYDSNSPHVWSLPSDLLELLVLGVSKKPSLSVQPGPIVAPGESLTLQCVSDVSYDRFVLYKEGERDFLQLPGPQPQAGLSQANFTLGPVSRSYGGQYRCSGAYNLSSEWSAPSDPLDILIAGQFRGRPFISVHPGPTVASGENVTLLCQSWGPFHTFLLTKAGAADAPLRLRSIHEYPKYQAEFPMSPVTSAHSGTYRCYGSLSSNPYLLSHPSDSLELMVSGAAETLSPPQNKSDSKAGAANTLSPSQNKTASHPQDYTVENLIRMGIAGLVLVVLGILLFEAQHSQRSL
Description: as §1

human LILRA2 = biological target: T8, human LILRA2 (human, UniProt Q8N149 24-483); experiment: as above
T8 construct: whole, on cells; also called hLILRA2
T8 sequence (Q8N149 24-483): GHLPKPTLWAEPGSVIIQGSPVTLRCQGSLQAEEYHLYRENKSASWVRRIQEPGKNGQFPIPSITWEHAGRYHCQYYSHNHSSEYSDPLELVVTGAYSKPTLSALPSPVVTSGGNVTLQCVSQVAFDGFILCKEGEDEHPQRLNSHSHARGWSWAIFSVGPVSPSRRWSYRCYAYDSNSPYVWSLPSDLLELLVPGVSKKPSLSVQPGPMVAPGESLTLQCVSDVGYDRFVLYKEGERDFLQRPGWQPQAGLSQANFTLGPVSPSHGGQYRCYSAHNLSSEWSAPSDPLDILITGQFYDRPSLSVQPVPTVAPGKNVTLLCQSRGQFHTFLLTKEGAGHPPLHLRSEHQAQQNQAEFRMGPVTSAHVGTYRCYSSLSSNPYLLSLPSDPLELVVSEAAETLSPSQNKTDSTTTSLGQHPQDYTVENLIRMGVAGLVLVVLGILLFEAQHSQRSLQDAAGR
Description: as §1

human LILRA3 = biological target: T9, human LILRA3 (human, UniProt Q8N6C8 24-439); experiment: as above
T9 construct: whole, on cells; also called hLILRA3; LIRA3
T9 sequence (Q8N6C8 24-439): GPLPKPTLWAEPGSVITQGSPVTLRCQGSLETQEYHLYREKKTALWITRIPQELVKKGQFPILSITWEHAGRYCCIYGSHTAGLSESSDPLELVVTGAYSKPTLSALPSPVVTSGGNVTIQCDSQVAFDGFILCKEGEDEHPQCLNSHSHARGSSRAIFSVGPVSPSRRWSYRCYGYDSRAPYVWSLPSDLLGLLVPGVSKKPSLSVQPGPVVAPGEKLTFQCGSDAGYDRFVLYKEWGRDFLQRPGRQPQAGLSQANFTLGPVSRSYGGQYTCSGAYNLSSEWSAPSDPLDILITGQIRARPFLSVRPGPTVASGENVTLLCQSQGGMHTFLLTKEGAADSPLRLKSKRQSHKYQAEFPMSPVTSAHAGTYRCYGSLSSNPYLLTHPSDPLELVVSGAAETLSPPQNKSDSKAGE
Description: as §1

human ILT5 = biological target: T10, human ILT5 (human, UniProt O75022 24-631); experiment: as above
T10 construct: whole, on cells; also called hILT5; LILRB3
Description: as §1

hILT4-His-Avi tag [1] = biological target: T11, hILT4-His-Avi tag (human, UniProt Q8N423 22-459); experiment: SPR Biacore T200, 37 C; antibody captured on protein A/G chip, monomeric hILT4 as analyte; steady state fit
T11 construct: also called monomeric human ILT4; extracellular region of hILT4 linked to a His-Avi tag
T11 sequence (Q8N423 other isoform, or with tags, fused parts or gaps): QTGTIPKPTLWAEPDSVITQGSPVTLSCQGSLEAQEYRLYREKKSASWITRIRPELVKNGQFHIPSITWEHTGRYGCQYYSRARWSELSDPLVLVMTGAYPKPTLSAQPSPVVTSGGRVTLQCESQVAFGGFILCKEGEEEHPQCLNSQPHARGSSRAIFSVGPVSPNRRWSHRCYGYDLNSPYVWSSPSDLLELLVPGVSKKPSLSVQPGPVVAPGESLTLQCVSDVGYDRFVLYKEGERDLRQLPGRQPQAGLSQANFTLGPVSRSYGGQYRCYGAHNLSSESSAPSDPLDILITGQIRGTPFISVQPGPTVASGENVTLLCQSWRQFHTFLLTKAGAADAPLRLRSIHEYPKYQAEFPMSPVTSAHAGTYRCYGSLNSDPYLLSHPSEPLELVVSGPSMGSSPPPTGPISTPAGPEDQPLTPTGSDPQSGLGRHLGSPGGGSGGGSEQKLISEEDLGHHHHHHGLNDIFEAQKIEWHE
Description: (§2) The binding kinetics of the parent and germline reversion mutant anti-hILT4 antibodies (in the context of IgG1.3) were measured via Surface Plasmon Resonance (SPR) using a Biacore® T200 instrument. The assay temperature was 37° C. and the running buffer was PBS pH 7.4 supplemented with 0.05% Tween-20. Allanti-hILT4 antibodies were captured on a CM4 chip with pre-immobilized protein A/G (Pierce Thermo Scientific catalog number 21186). […] Monomeric human ILT4 was injected as analyte. […] The hILT4 used in this experiment, comprising the extracellular region of hILT4 linked to a His-Avi tag, consists of the following amino acid sequence: […]

rhILT4-Fc [2] = biological target: T12, rhILT4-Fc (human, UniProt Q8N423-1 22-461); experiment: flow cytometry blocking assay: antibody titrated (12 points) with rhILT4-Fc fixed at 30 µg/ml; rhILT4-Fc bound to HLA-B overexpressing CHO cells read as % Positive; blocked ligand: HLA-B; the IC50 table has no unit, the concentration axis is in ug/mL
T12 construct: also called rhILT4-Fc fusion protein with a murine Fc tail; not shown: murine Fc tail
T12 sequence (Q8N423 other isoform, or with tags, fused parts or gaps): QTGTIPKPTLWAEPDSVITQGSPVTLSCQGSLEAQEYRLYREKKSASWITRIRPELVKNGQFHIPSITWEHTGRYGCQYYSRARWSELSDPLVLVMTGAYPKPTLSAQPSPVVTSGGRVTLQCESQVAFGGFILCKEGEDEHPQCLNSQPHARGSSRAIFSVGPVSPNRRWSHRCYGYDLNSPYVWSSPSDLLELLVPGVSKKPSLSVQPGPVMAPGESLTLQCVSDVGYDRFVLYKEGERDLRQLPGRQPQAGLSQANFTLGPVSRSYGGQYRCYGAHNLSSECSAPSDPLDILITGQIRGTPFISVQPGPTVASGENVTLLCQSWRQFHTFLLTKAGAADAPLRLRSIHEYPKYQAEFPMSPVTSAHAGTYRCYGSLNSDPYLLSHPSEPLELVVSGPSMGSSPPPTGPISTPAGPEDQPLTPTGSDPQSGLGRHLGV

[3] = biological target: T13, human ILT4 (hILT4) expressed on cells (human, UniProt Q8N423 22-597); experiment: flow cytometry cross-blocking on hILT4 CHO cells: unlabelled antibody titrated from 40 µg/mL, then PE-2H2.IgG1.1f at 1.5 µg/mL; competitor: PE-2H2; GMFI (PE) falls from about 310 to about 45; the table calls the value EC50 and has no unit, the concentration axis is in µg/mL
T13 construct: hILT4 on transfected CHO or 293T cells, or native on human monocytes and macrophages; also called LILRB2
T13 sequence (Q8N423 other isoform, or with tags, fused parts or gaps): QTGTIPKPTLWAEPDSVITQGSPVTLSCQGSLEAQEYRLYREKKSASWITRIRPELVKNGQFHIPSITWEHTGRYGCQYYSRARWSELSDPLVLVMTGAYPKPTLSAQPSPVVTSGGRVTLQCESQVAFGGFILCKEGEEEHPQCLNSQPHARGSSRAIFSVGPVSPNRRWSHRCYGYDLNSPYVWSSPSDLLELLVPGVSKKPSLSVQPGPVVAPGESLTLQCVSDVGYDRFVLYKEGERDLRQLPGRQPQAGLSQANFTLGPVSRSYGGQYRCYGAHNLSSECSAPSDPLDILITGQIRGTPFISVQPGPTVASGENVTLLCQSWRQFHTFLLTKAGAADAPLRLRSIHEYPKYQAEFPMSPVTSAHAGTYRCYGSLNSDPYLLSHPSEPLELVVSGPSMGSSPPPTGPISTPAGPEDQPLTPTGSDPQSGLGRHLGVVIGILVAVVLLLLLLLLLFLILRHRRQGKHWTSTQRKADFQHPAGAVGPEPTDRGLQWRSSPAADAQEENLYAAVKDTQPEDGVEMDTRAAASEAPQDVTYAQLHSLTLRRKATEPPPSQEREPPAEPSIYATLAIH
Description: (§3) After washing, the samples were acquired on a FACSCanto™ cytometer (BD Bioscience, San Jose) and analyzed with Flowjo™ software (Tree Star, Inc, Ashland, Oreg.).

hILT4-His-Avi tag [4] = biological target: T11, hILT4-His-Avi tag; experiment: SPR Biacore T200, 37 C; antibody captured on protein A/G chip, monomeric hILT4 as analyte; kinetic fit
Description: as §2

[5] = biological target: T13, human ILT4 (hILT4) expressed on cells; experiment: flow cytometry cross-blocking on hILT4 CHO cells: unlabelled antibody titrated from 40 µg/mL, then PE-21D9.IgG1.1f at 1.5 µg/mL; competitor: PE-21D9; GMFI (PE) falls from about 595 to about 60; the table calls the value EC50 and has no unit, the concentration axis is in µg/mL
Description: as §3

rhILT4-Fc [6] = biological target: T12, rhILT4-Fc; experiment: flow cytometry blocking assay: antibody titrated (12 points) with rhILT4-Fc fixed at 30 µg/ml; rhILT4-Fc bound to HLA-A overexpressing CHO cells read as % Positive; blocked ligand: HLA-A; the IC50 table has no unit, the concentration axis is in ug/mL
[7] = biological target: T13, human ILT4 (hILT4) expressed on cells; experiment: flow cytometry on hILT4-transfected CHO cells, PE anti-human IgG secondary, GMFI (PE); EC50 from the table below the graph; the table has no unit, the concentration axis is in ug/mL
hILT4-His-Avi tag [8] = biological target: T11, hILT4-His-Avi tag; experiment: SPR Biacore T200, 37 C; antibody captured by anti-human Fc on CM4 chip, hILT4-His-Avi as analyte; 1:1 Langmuir fit
Description: The running buffer was 10 mM HEPES pH 7.4 supplemented with 0.05% Tween-20 and 1 g/L BSA. All anti-ILT4 antibodies were captured on a CM4 chip with pre-immobilized anti-human Fc capture antibody from Southern Biotech (catalog number 2081-01). […] All data were double-referenced and fitted to a 1:1 Langmuir model with mass transport using Biacore T200 Evaluation Software version 3.1.

[9] = biological target: T13, human ILT4 (hILT4) expressed on cells; experiment: flow cytometry on human monocytes of a healthy donor, directly labelled antibody, GMFI; EC50 from the table below the graph; the table has no unit, the concentration axis is in ug/mL
Description: In FIG. 18B, monocytes selected from a normal healthy donor's peripheral blood were stained with individual anti-ILT4 antibodies conjugated to […].

hILT4-His-Avi tag [10] = biological target: T11, hILT4-His-Avi tag; experiment: SPR Biacore T200, 37 C; antibody captured on protein A/G chip, monomeric hILT4 as analyte
Description: as §2

rhILT4-Fc [11] = biological target: T12, rhILT4-Fc; experiment: flow cytometry blocking assay: antibody titrated (12 points) with rhILT4-Fc fixed at 30 µg/ml; rhILT4-Fc bound to HLA-B overexpressing CHO cells read as % Positive; blocked ligand: HLA-B; the IC50 table has no unit, the concentration axis is in ug/mL; remark: listed apart in the source
[12] = biological target: T13, human ILT4 (hILT4) expressed on cells; experiment: antibody titration flow cytometry binding assay on transfected cells, nonlinear regression
rhILT4-Fc [13] = biological target: T12, rhILT4-Fc; experiment: flow cytometry blocking assay: antibody titrated (12 points) with rhILT4-Fc fixed at 30 µg/ml; rhILT4-Fc bound to HLA-A overexpressing CHO cells read as % Positive; blocked ligand: HLA-A; the IC50 table has no unit, the concentration axis is in ug/mL; remark: listed apart in the source

T1 sequence (P59901 24-499): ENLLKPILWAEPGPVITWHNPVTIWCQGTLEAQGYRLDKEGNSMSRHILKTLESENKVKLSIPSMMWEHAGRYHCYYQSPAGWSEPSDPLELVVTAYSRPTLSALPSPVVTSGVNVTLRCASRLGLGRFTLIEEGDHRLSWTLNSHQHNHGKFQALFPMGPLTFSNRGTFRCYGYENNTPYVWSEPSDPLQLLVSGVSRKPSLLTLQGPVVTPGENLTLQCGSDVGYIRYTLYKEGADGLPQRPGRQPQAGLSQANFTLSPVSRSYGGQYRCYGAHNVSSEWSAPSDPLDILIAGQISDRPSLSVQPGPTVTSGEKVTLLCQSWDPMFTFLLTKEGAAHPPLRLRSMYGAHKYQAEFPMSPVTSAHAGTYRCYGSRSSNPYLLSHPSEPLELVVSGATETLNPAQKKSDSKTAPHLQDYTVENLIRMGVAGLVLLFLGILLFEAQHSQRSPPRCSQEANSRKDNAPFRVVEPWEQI

B1: 10F10.IgG1.3 (antibody, V domains shown)
VH: QVQLVESGGGVVQPGRSLRLSCAASGFTFSSYAMHWVRQAPGKGLEWVAIISYDEYNKYYADSVKGRFTISRDNSKNTLYLQMNSLRAEDTAVYYCAREWVGIRYWGQGTLVTVSS
VL: AIQLTQSPSSLSASVGDRVTITCRASQGISSALAWFQQKPGKAPKLLIYDASSLESGVPSRFTGSGSGTDFTLTISSLQPEDFATYYCQQFNSYPITFGQGTRLEIKR
notes: Fully human antibody, IgG1.3 heavy chain constant region (L234A, L235E, G237A), kappa light chain; also called 10F10 WT; ILT4.10.IgG1.3
Human LILRA4
  binding result: no binding (tested: 20 µg/ml)
Human ILT3
  binding result: no binding (tested: 20 µg/ml)
Human ILT2
  binding result: no binding (tested: 20 µg/ml)
Human LILRA5
  binding result: no binding (tested: 20 µg/ml)
Human LIR8
  binding result: no binding (tested: 20 µg/ml)
Human LILRA6
  binding result: no binding (tested: 20 µg/ml)
Human LILRA1
  binding result: no binding (tested: 20 µg/ml)
Human LILRA2
  binding result: no binding (tested: 20 µg/ml)
Human LILRA3
  binding result: no binding (tested: 20 µg/ml)
Human ILT5
  binding result: no binding (tested: 20 µg/ml)
hILT4-His-Avi tag [1]
  Kd: 19 nM and 18 nM
rhILT4-Fc [2]
  IC50: 1.55 µg/mL
[3]
  EC50: 0.0279 µg/mL
hILT4-His-Avi tag [4]
  Kd: 14 nM and 15 nM
  koff: 0.023 s⁻¹ and 0.02 s⁻¹
  kon: 1.6e+06 M⁻¹ s⁻¹ and 1.3e+06 M⁻¹ s⁻¹
[5]
  EC50: 0.0492 µg/mL
rhILT4-Fc [6]
  IC50: 3.6 µg/mL
[7]
  EC50: 0.015 µg/mL
hILT4-His-Avi tag [8]
  Kd: 22 nM
  app. act.: 100%
  koff: 0.026 s⁻¹
  kon: 1.2e+06 M⁻¹ s⁻¹
[9]
  EC50: 0.131 µg/mL

B2: 10F10.3.IgG1.3 (antibody, V domains shown)
VH: QVQLVESGGGVVQPGRSLRLSCAASGFTFSSYAMHWVRQAPGKGLEWVAIISYDEYNKYYADSVKGRFTISRDNSKNTLYLQMNSLRAEDTAVYYCAREWVGIRYWGQGTLVTVSS
VL: AIQLTQSPSSLSASVGDRVTITCRASQGISSALAWYQQKPGKAPKLLIYDASSLESGVPSRFSGSGSGTDFTLTISSLQPEDFATYYCQQFNSYPITFGQGTRLEIKR
notes: Germline reversion mutant of 10F10 (light chain F36Y and T63S); heavy chain of 10F10; IgG1.3; also called ILT4.11.IgG1.3; 10F10.VK-F36Y/T63S.IgG1.3
hILT4-His-Avi tag [1]
  Kd: 52 nM
  app. act.: 115%
hILT4-His-Avi tag [10]
  fold loss in overall affinity relative to parent 10F10: ~3 fold
hILT4-His-Avi tag [4]
  Kd: 47 nM
  app. act.: 123%
  koff: ~0.08 s⁻¹
  kon: 1.7e+06 M⁻¹ s⁻¹

B3: 21D9.IgG1.1f (antibody)
heavy: EGQLLESGGDLVQPGGSLRLSCATSGFTFSNYAMNWVRQAPGKGLEWISVISVSGGSTYYADSVKGRFTISRDNSKNTLYLQMNSLRAEDTAVYYCAKDYYYDSGSYYDSFFDYWGQGTLVTVSSASTKGPSVFPLAPSSKSTSGGTAALGCLVKDYFPEPVTVSWNSGALTSGVHTFPAVLQSSGLYSLSSVVTVPSSSLGTQTYICNVNHKPSNTKVDKRVEPKSCDKTHTCPPCPAPEAEGAPSVFLFPPKPKDTLMISRTPEVTCVVVDVSHEDPEVKFNWYVDGVEVHNAKTKPREEQYNSTYRVVSVLTVLHQDWLNGKEYKCKVSNKALPSSIEKTISKAKGQPREPQVYTLPPSREEMTKNQVSLTCLVKGFYPSDIAVEWESNGQPENNYKTTPPVLDSDGSFFLYSKLTVDKSRWQQGNVFSCSVMHEALHNHYTQKSLSLSPGK
light: not shown
notes: Parent 21D9 in IgG1.1f (L234A, L235E, G237A, A330S, P331S); also called ILT4.6.IgG1.1
Human LILRA4
  binding result: no binding (tested: 20 µg/ml)
Human ILT3
  binding result: no binding (tested: 20 µg/ml)
Human ILT2
  binding result: no binding (tested: 20 µg/ml)
Human LIR8
  binding result: no binding (tested: 20 µg/ml)
Human LILRA6
  binding result: no binding (tested: 20 µg/ml)
Human LILRA1
  binding result: no binding (tested: 20 µg/ml)
Human LILRA2
  binding result: no binding (tested: 20 µg/ml)
Human LILRA3
  binding result: no binding (tested: 20 µg/ml)
Human ILT5
  binding result: no binding (tested: 20 µg/ml)
rhILT4-Fc [11]
  IC50: 0.918 µg/mL
[12]
  EC50: 0.046 µg/mL
rhILT4-Fc [13]
  IC50: 2.88 µg/mL
